Test results: patent US20170363644A1 (ROCKEFELLER UNIVERSITY, published 2017)
Where no end group is shown, it is not given here.

Target: T1, factor XII (FXII) (human, UniProt P00748 20-615)
T1 construct: Endogenous FXII in human plasma in the pulldown; purified FXII in the chromogenic assay; also called FXII zymogen
T1 sequence (looked up): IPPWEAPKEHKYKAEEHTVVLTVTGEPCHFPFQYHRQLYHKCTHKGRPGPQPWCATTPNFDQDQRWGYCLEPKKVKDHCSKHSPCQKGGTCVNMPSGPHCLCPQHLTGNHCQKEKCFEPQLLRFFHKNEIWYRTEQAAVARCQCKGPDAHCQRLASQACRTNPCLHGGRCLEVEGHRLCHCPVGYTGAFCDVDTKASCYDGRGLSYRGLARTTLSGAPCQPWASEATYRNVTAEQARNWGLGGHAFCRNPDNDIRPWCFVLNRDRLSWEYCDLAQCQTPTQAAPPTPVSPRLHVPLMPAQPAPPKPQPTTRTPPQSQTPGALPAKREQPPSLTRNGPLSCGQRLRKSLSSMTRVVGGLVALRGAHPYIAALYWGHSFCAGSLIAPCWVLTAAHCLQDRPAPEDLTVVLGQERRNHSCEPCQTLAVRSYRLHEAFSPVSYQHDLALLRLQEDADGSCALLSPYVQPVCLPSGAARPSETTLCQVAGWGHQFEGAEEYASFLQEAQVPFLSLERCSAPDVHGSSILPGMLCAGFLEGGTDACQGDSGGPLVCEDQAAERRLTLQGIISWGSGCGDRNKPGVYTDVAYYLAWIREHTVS
Experiment: streptavidin bead pulldown from human plasma, Western blot for FXII

binding result: no binding (tested: 500 Nm)
B1: biotinylated amylin (peptide, UniProt P10997 34-70, looked up)
peptide: KCNTATCATQRLANFLVHSSNNFGAILSSTNVGSNTY
modifications: ends and bridges not checked; also: biotinylated (site not given here)
notes: Control aggregating peptide in the pulldown
